T1: rat IL-22 (rat, UniProt G3V6X6 34-178)
T1 sequence: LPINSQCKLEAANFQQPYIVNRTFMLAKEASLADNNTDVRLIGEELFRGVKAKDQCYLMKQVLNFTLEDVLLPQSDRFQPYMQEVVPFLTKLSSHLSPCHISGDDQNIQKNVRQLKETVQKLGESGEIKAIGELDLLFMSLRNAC

T2: human IL-22 (human, UniProt Q9GZX6 34-179)
T2 sequence: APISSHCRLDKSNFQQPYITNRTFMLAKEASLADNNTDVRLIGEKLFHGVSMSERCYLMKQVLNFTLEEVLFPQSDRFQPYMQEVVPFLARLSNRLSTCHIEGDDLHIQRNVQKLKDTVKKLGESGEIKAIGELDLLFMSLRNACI

T3: murine IL-22 (murine, UniProt Q9JJY9 34-179)
T3 sequence: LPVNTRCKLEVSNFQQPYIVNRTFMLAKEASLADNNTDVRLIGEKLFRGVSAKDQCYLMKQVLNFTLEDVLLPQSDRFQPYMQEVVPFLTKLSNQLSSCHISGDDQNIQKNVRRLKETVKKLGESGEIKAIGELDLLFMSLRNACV

T4: IL-26 (human, UniProt Q9NPH9)
T4 construct: also called human IL-26
T4 sequence (cytokine, looked up): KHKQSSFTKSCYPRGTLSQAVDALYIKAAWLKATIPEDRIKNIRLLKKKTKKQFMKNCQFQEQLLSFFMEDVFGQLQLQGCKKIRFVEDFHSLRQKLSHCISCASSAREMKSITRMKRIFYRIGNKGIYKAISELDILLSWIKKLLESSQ

B1: 356A11 human monoclonal anti-IL-22 antibody (Examples 10, 11, 14, 15) (antibody, V domains shown)
VH: QVQLVQSGAEVKKPGASVKVSCKASGYTFTNYYMHWVRQAPGQGLEWVGWINPYTGSAFYAQKFRGRVTMTRDTSISTAYMELSRLRSDDTAVYYCAREPEKFDSDDSDVWGRGTLVTVSS
VL: QAVLTQPPSVSGAPGQRVTISCTGSSSNIGAGYGVHWYQQLPGTAPKLLIYGDSNRPSGVPDRFSGSKSGTSASLAITGLQAEDEADYYCQSYDNSLSGYVFGGGTQLTVLG
B2: 097D09 IgG (non-germlined) (antibody, V domains shown)
VH: EVQLVESGGGLVTPGGSLRLSCAASGFTFSDYYMSWVRQAPGRGLEWVSAISGSGGSTYYADSVKGRITISRDNAKNSLYLQMSSLRSEDTAVYYCARGLWVWDPLDYWGRGTLVTVSS
VL: DIQMTQSPSTLSASIGDRVTITCRASEGIYHWLAWYQQKPGKAPKLLIYKASSLASGAPSRFSGSGFGTDFTLTISSLQPDDFATYYCQQYSEFAWTFGGGTKLEIKR
notes: IgG

Assays:
[1] = target: monkey IL-22 (monkey); assay: cell-based or functional assay
[2] = target: T1, rat IL-22; assay: cell-based or functional assay
[3] = target: T2, human IL-22; assay: cell-based or functional assay
[4] = target: T3, murine IL-22; assay: cell-based or functional assay
[5] = target: monkey IL-22 (monkey); assay: cell-based or functional assay; remark: listed apart in the source
[6] = target: T1, rat IL-22; assay: cell-based or functional assay; remark: listed apart in the source
[7] = target: T2, human IL-22; assay: cell-based or functional assay; remark: listed apart in the source
[8] = target: T3, murine IL-22; assay: cell-based or functional assay; remark: listed apart in the source
[9] = target: T5, BSA (bovine, UniProt P02769); assay: ELISA: plate coated with antigen, IgG added at 1 µg/ml, HRP goat anti-human IgG, A450
T5 construct: also called bovine serum albumin

[10] = target: T2, human IL-22; assay: cell-based or functional assay; remark: listed apart in the source
[11] = target: T4, IL-26; assay: ELISA: plate coated with 1 µg/ml antigen, IgG added at 1 µg/ml, HRP goat anti-human IgG, A450
Experimental: (§1) Cross species reactivity of germlined and non-germlined optimized antibodies were determined as follows: ELISA plates (Costar, Cat. #3590) were coated overnight with 1 μg/ml of rat, mouse, or human IL-22 or human IL-26 in PBS buffer. Plates were washed with PBST buffer (0.05% Tween20 in PBS) 3 times, then blocked with 1% BSA (Sigma A8918)/PBST for 1 hr at RT. Antibodies were added at 1 μg/ml, incubated 1 hr at 25° C. […] The plates were incubated for 1 hour at 25° C., then washed with PBST, and developed with TMB (KPL, Cat. #50-76-04). Reaction was stopped with 0.18 M H₂SO₄ Plates were read at OD 450 nm.

[12] = target: T3, murine IL-22; assay: as above
Experimental: as §1

T5 sequence (P02769 25-607 limits assumed): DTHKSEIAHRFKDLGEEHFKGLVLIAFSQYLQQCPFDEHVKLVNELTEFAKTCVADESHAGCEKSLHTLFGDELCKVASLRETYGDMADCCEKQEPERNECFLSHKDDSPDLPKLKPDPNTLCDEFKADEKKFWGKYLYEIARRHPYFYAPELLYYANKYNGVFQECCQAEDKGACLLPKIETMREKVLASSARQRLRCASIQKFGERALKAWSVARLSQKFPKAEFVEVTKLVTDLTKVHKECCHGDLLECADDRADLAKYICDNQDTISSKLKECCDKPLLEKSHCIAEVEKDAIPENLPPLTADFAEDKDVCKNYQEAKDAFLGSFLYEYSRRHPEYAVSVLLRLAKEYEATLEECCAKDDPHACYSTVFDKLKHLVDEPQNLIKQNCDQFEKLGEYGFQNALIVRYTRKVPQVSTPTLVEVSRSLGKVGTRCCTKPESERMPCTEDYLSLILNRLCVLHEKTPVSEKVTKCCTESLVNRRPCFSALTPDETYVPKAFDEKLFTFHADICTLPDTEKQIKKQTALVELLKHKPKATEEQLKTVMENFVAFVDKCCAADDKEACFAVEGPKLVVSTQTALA

| Binder | IC50 (pM) in BaF3 cell based assay [1] | IC50 (pM) in BaF3 cell based assay [2] | IC50 (pM) in BaF3 cell based assay [3] | IC50 (pM) in BaF3 cell based assay [4] | IC50 (pM) in GROa cell based assay (HT29 cells) [5] | IC50 (pM) in GROa cell based assay (HT29 cells) [6] | IC50 (pM) in GROa cell based assay (HT29 cells) [7] | IC50 (pM) in GROa cell based assay (HT29 cells) [8] | binding result [9] | IC50 of IgG (pM) in BaF3-IL-22 proliferation assay [10] | binding result [11] | binding result [12] |
| --- | --- | --- | --- | --- | --- | --- | --- | --- | --- | --- | --- | --- |
| B1 | 2.58 pM | 10.7 pM | 3.57 pM | 2.53 pM | 89.6 pM | 211 pM | 124 pM | 144 pM | – | – | – | – |
| B2 | – | – | – | – | – | – | – | – | no binding (tested: 1 µg/ml) | 197 pM | no binding (tested: 1 µg/ml) | no binding (tested: 1 µg/ml) |
